The text below walks through data of publication doi:10.1101/2020.05.04.070177, “Mechanistic insights into RNA binding and RNA-regulated RIG-I ubiquitination by TRIM25” (bioRxiv, 2020).

The target of series [1] is T1, TRIM25 CC-PRY/SPRY (UniProt Q14258 189-630). Kind of series: filter binding; ITC and filter binding: 20 mM MES pH 6.5, 75 mM NaCl, 0.5 mM TCEP (ITC 20 C, filter binding on ice); NMR: 20 mM Na phosphate pH 6.5, 150 mM NaCl, 2 mM TCEP, 293 K. Particulars: protein: recombinant; tags: His-Trx (removed); chain copies: 2; hairpin.
T1 sequence (Q14258 189-630): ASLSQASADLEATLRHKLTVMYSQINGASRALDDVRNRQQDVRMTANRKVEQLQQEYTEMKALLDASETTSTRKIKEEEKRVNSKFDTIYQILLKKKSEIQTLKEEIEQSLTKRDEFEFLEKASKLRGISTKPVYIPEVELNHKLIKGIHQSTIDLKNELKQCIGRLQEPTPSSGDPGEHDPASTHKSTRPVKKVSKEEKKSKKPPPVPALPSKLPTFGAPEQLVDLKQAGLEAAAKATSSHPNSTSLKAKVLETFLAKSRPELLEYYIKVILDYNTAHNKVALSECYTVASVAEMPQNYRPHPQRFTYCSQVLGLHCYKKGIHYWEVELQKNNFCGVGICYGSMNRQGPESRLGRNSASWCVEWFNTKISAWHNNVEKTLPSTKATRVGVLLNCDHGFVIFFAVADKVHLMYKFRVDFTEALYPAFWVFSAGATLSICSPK
The target of series [2] is T2, TRIM25 CC-PRY/SPRY H505E/K508E (UniProt Q14258 189-630, H505E;K508E). Kind of series: ITC; second fitted site; ITC and filter binding: 20 mM MES pH 6.5, 75 mM NaCl, 0.5 mM TCEP (ITC 20 C, filter binding on ice); NMR: 20 mM Na phosphate pH 6.5, 150 mM NaCl, 2 mM TCEP, 293 K. Particulars: protein: recombinant; tags: His-Trx (removed); chain copies: 2; hairpin. On the technique in general: ITC needs no label: the signal is the heat of the interaction.
T2 sequence (Q14258 189-630 H505E/K508E): as the sequence (Q14258 189-630) above, with H317E, K320E counted along it

The target in series [3] is T3, TRIM25 CC-PRY/SPRY Y463S/Y476S (UniProt Q14258 189-630, Y463S;Y476S). Described as above. Conditions: protein: recombinant; tags: His-Trx (removed); chain copies: 2; hairpin.
T3 sequence (Q14258 189-630 Y463S/Y476S): as the sequence (Q14258 189-630) above, with Y275S, Y288S counted along it
Series [4] has as its target T4, TRIM25 CC-PRY/SPRY K283A/K285A (UniProt Q14258 189-630, K283A;K285A). The description is as above. Particulars: protein: recombinant; tags: His-Trx (removed); chain copies: 2; hairpin.
Series [5] addresses T5, TRIM25 CC-PRY/SPRY triple mutant (UniProt Q14258 189-630, H505E;K508E;K602E). The description is as above. Conditions: protein: recombinant; tags: His-Trx (removed); chain copies: 2; hairpin.
Series [6] addresses T6, TRIM25 CC-PRY/SPRY penta-mutant (UniProt Q14258 189-630, K283A;K285A;H505E;K508E;K602E). Described as above. Particulars: protein: recombinant; tags: His-Trx (removed); chain copies: 2; hairpin.
In series [7] the target is T7, TRIM25 CC-PRY/SPRY K602E (UniProt Q14258 189-630, K602E). The series is described as above. Particulars: protein: recombinant; tags: His-Trx (removed); chain copies: 2; hairpin.
T7 sequence (Q14258 189-630 K602E): as the sequence (Q14258 189-630) above, with K414E counted along it
For series [8], the target named is T2, TRIM25 CC-PRY/SPRY H505E/K508E. Kind of series: ITC; first of two fitted sites; ITC and filter binding: 20 mM MES pH 6.5, 75 mM NaCl, 0.5 mM TCEP (ITC 20 C, filter binding on ice); NMR: 20 mM Na phosphate pH 6.5, 150 mM NaCl, 2 mM TCEP, 293 K. Particulars: protein: recombinant; tags: His-Trx (removed); chain copies: 2; hairpin.
Series [9] addresses T3, TRIM25 CC-PRY/SPRY Y463S/Y476S. The series is described as above. Conditions: protein: recombinant; tags: His-Trx (removed); chain copies: 2; hairpin.
Series [10] concerns the target T4, TRIM25 CC-PRY/SPRY K283A/K285A. The description is as above. Particulars: protein: recombinant; tags: His-Trx (removed); chain copies: 2; hairpin.
Series [11] has as its target T5, TRIM25 CC-PRY/SPRY triple mutant. The series is described as above. Particulars: protein: recombinant; tags: His-Trx (removed); chain copies: 2; hairpin.
Series [12] concerns the target T6, TRIM25 CC-PRY/SPRY penta-mutant. The series is described as above. Conditions: protein: recombinant; tags: His-Trx (removed); chain copies: 2; hairpin.
In series [13] the target is T7, TRIM25 CC-PRY/SPRY K602E. The description is as above. Conditions: protein: recombinant; tags: His-Trx (removed); chain copies: 2; hairpin.
The target in another series is TRIM25 PRY/SPRY (UniProt Q14258 439-630). Kind of series: ITC; ITC and filter binding: 20 mM MES pH 6.5, 75 mM NaCl, 0.5 mM TCEP (ITC 20 C, filter binding on ice); NMR: 20 mM Na phosphate pH 6.5, 150 mM NaCl, 2 mM TCEP, 293 K. Conditions: protein: recombinant; tags: His-Trx (removed); chain copies: 3; hairpin.
Chain of TRIM25 PRY/SPRY (Q14258 439-630): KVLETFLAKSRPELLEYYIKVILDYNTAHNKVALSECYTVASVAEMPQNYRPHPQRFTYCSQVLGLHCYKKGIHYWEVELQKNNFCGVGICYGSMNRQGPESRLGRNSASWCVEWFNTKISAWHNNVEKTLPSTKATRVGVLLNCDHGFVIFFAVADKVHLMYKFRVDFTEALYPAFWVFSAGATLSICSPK
In a further series the target is TRIM25 CC (UniProt Q14258 189-379). The description is as above. Particulars: protein: recombinant; tags: His-Trx (removed); chain copies: 2; hairpin.
Chain of TRIM25 CC (Q14258 189-379): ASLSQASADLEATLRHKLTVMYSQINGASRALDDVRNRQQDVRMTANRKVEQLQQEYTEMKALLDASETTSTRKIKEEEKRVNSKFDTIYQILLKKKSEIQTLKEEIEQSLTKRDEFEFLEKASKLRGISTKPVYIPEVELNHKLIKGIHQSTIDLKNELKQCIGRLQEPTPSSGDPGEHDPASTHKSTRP
In series [14] the target is T1, TRIM25 CC-PRY/SPRY. Kind of series: ITC; highest affinity site; ITC and filter binding: 20 mM MES pH 6.5, 75 mM NaCl, 0.5 mM TCEP (ITC 20 C, filter binding on ice); NMR: 20 mM Na phosphate pH 6.5, 150 mM NaCl, 2 mM TCEP, 293 K. Particulars: protein: recombinant; tags: His-Trx (removed); chain copies: 2; hairpin.

T5 sequence (Q14258 189-630 H505E/K508E/K602E): as the sequence (Q14258 189-630) above, with H317E, K320E, K414E counted along it
T6 sequence (Q14258 189-630 K283A/K285A/H505E/K508E/K602E): as the sequence (Q14258 189-630) above, with K95A, K97A, H317E, K320E, K414E counted along it
T4 sequence (Q14258 189-630 K283A/K285A): as the sequence (Q14258 189-630) above, with K95A, K97A counted along it

One may read the Kd as the equilibrium constant for the complex coming apart. In the case of GUAUAGUUUAAAAGGAGAUAACUAUAC (structured_RNA) [pre-let-7a-1@2], the dissociation constant Kd with TRIM25 CC-PRY/SPRY [1] is 10.2 ± 3.8 nM; in [2], 4190 ± 500 nM; in series [3], 17000 ± 11000 nM; in series [4], 16600 ± 2100 nM; in series [5], 132000 ± 24000 nM; in [6], 124000 ± 28000 nM. Besides, the Kd stood at 2540 ± 120 nM in the series with TRIM25 CC-PRY/SPRY K602E [7]; 484 ± 48 nM in [8]; 252 ± 61 nM in [9]; 606 ± 124 nM in series [10]; 790 ± 160 nM in [11]; 1320 ± 370 nM in [12]. Moreover, the Kd in the series with TRIM25 CC-PRY/SPRY K602E [13] was found to be 196 ± 22 nM; in the series with TRIM25 PRY/SPRY it was 5000 ± 1200 nM; in the series with TRIM25 CC, 8100 ± 3100 nM; with TRIM25 CC-PRY/SPRY [14], 72 ± 33 nM.
